Laboratory results published in paper PMC10881741, “Structural modifications toward improved lead-203/lead-212 peptide-based image-guided alpha-particle radiopharmaceutical therapies for neuroendocrine tumors” (European Journal of Nuclear Medicine and Molecular Imaging, 2023).
Like-named read-outs stand apart in the source and are kept apart here.

Tests used:
[1] = tested on: AR42J cells; experiment: Cellular uptake of ^203Pb-labeled peptides; assay type: cell-based, rat; conditions: 2 h post-incubation
Method: PSCTOC and PSC-PEG2-TOC were labeled with ^203Pb and purified via HPLC for high molar activities as descibed in the Supplementary Material and in Li and collaborators. The HPLC-purified ^203Pb-labeled peptides (3.4 kBq) were incubated with AR42J cells in 24-well plates (pre-coated with poly-D-lysine), which were plated at a density of 2.0 × 10^5 cells 2 days prior, in the binding medium at 37 °C for up to 120 min. The cells were then washed twice and lysed, and the radioactivities of the samples were determined (n=3).

[2] = In vivo biodistribution of ^203Pb-labeled peptides; set-up: species or system mice; conditions: female, athymic nu/nu, mouse, 37 kBq, total radioactivity; for tissue uptake at 1 h / tissue uptake at 3 h / tissue uptake at 24 h: intravenous; for tissue uptake at 1 h / tissue to tissue ratio at 1 h: 1 h post-administration; for tissue uptake at 3 h / tissue to tissue ratio at 3 h: 3 h post-administration; for tissue uptake at 24 h / tissue to tissue ratio at 24 h: 24 h post-administration; for tissue to tissue ratio at 1 h / tissue to tissue ratio at 3 h / tissue to tissue ratio at 24 h: iv
Method: AR42J cells (5.0 × 10^6 cells/animal) were implanted subcutaneously on the left shoulder of female athymic nu/nu mice. […] Extra groups of mice were co-administered 37 kBq of ^203Pb-PSC-PEG2-TOC with DL-lysine (400 mg/kg) to determine the effect of amino acid on renal uptake of the radiopharmaceutical. Mice (n=3 per time point) were euthanized at 1, 3, and 24 h post-administration, and tumors and organs/tissues of interest were excised and weighed. The radioactivities of the samples were measured using the gamma counter.

[3] = large intestine, read-out: Large intestine
[4] = small intestine, read-out: Small intestine
[5] = tumor/blood, read-out: Tumor/blood ratio
[6] = tumor/kidneys, read-out: Tumor/kidneys ratio
[7] = tumor/liver, read-out: Tumor/liver ratio
[8] = tumor/lung, read-out: Tumor/lung ratio
[9] = tumor/muscle, read-out: Tumor/muscle ratio

## C[C@@H](O)[C@@H]1NC(=O)[C@H](CCCCN)NC(=O)[C@@H](Cc2c[nH]c3ccccc23)NC(=O)[C@H](Cc2ccc(O)cc2)NC(=O)[C@@H](NC(=O)[C@@H](Cc2ccccc2)NC(=O)CN2CCN(CC(=O)O)CCN(CC(N)=O)CCN(CC(=O)O)CC2)CSSC[C@@H](C(=O)N[C@H](CO)[C@@H](C)O)NC1=O [[^203Pb]Pb-PSCTOC, metal not drawn]
[1]
  Cellular uptake, fold vs. [^203Pb]Pb-DOTATOC: 6 fold
[1]; 37 °C
  Cellular uptake: 5%
[2]; blood, read-out: Blood
  tissue uptake at 1 h: 0.53 ± 0.06 %ID/g
  tissue uptake at 3 h: 0.03 ± 0.01 %ID/g
  tissue uptake at 24 h: 0.01 %ID/g
[2]; brain, read-out: Brain
  tissue uptake at 1 h: 0.16 ± 0.16 %ID/g
  tissue uptake at 3 h: 0.01 %ID/g
  tissue uptake at 24 h: 0.02 %ID/g
[2]; heart, read-out: Heart
  tissue uptake at 1 h: 0.32 ± 0.02 %ID/g
  tissue uptake at 3 h: 0.07 %ID/g
  tissue uptake at 24 h: 0.05 ± 0.01 %ID/g
[2]; kidneys, read-out: Kidneys
  tissue uptake at 1 h: 13.6 ± 0.75 %ID/g
  tissue uptake at 3 h: 8.35 ± 1.33 %ID/g
  tissue uptake at 24 h: 5.59 ± 1.3 %ID/g
[2]; [3]
  tissue uptake at 1 h: 0.77 ± 0.04 %ID/g
  tissue uptake at 3 h: 3.1 ± 0.12 %ID/g
  tissue uptake at 24 h: 0.45 ± 0.03 %ID/g
[2]; liver, read-out: Liver
  tissue uptake at 1 h: 0.44 ± 0.02 %ID/g
  tissue uptake at 3 h: 0.19 ± 0.03 %ID/g
  tissue uptake at 24 h: 0.14 %ID/g
[2]; lung, read-out: Lung
  tissue uptake at 1 h: 5.06 ± 0.74 %ID/g
  tissue uptake at 3 h: 1.09 ± 0.36 %ID/g
  tissue uptake at 24 h: 1.39 ± 0.27 %ID/g
[2]; muscle, read-out: Muscle
  tissue uptake at 1 h: 0.25 ± 0.06 %ID/g
  tissue uptake at 3 h: 0.05 ± 0.03 %ID/g
  tissue uptake at 24 h: 0.03 ± 0.01 %ID/g
[2]; [4]
  tissue uptake at 1 h: 1.38 ± 0.07 %ID/g
  tissue uptake at 3 h: 2.85 ± 2.25 %ID/g
  tissue uptake at 24 h: 0.12 ± 0.01 %ID/g
[2]; spleen, read-out: Spleen
  tissue uptake at 1 h: 0.7 ± 0.13 %ID/g
  tissue uptake at 3 h: 0.35 ± 0.12 %ID/g
  tissue uptake at 24 h: 0.24 ± 0.03 %ID/g
[2]; tumor, read-out: Tumor
  tissue uptake at 1 h: 19.1 ± 3.31 %ID/g
  tissue uptake at 3 h: 16.2 ± 1.76 %ID/g
  tissue uptake at 24 h: 8.65 ± 0.7 %ID/g
[2]; [5]
  tissue to tissue ratio at 1 h: 36.1
  tissue to tissue ratio at 3 h: 540
  tissue to tissue ratio at 24 h: 865
[2]; [6]
  tissue to tissue ratio at 1 h: 1.41
  tissue to tissue ratio at 3 h: 1.94
  tissue to tissue ratio at 24 h: 1.55
[2]; [7]
  tissue to tissue ratio at 1 h: 43.5
  tissue to tissue ratio at 3 h: 85.3
  tissue to tissue ratio at 24 h: 61.8
[2]; [8]
  tissue to tissue ratio at 1 h: 3.78
  tissue to tissue ratio at 3 h: 14.9
  tissue to tissue ratio at 24 h: 6.22
[2]; [9]
  tissue to tissue ratio at 1 h: 76.6
  tissue to tissue ratio at 3 h: 324
  tissue to tissue ratio at 24 h: 288
